Source: patent WO2025083273A1 (dated 2025)

T1: human DR3 (TNFRSF25) expressed on cells (human, UniProt Q93038 25-417)
T1 sequence: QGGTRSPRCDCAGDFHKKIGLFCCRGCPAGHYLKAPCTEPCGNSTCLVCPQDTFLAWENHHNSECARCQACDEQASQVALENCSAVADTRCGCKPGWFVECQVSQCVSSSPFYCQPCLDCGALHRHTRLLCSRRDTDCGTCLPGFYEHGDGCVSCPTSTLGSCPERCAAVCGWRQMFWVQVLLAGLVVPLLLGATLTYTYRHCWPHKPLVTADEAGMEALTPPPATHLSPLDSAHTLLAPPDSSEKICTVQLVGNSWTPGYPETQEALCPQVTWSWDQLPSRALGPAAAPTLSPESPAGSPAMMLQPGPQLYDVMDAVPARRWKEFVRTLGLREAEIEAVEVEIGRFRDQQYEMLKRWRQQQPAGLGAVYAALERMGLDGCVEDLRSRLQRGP


Target: T1, human DR3 (TNFRSF25) expressed on cells
Assay: cell-based or functional assay

Row | Signal (FLU), isotype control | Signal (FLU) | Molecule
1 | 385000 FLU | – | R347 IgG (antibody)
2 | – | 3.27e+06 FLU | VHg10/VLg13 (antibody, human IgG1, V domains shown) VH: EVQLVESGGGLVQPGGSLRLSCAASGFTFSSYAMSWVRQAPGKGLEWVSTISDGDSYSYFPDSVKDRFTISRDNSKNTLYLQMNSLRAEDTAVYYCARDRIYGSVQYYAMDYWGQGTLVTVSS VL: DIQMTQSPSSLSASVGDRVTITCRASESVEFSGTSLMQWYQQKPGKAPKLLIYAASNVESGVPSRFSGSGSGTDFTFTISSLQPEDIATYYCQQSRKLPYTFGQGTKLEIK
3 | – | 2.84e+06 FLU | VHg10/VLg2 (antibody, human IgG1, V domains shown) VH: EVQLVESGGGLVQPGGSLRLSCAASGFTFSSYAMSWVRQAPGKGLEWVSTISDGDSYSYFPDSVKDRFTISRDNSKNTLYLQMNSLRAEDTAVYYCARDRIYGSVQYYAMDYWGQGTLVTVSS VL: DIQLTQSPSSLSASVGDRVTITCRASESVEFSGTSLMQWYQQKAGLAPKLLIYAASNVESGVPSRFSGSGSGTDFTLTISSLQPEDFGTYYCQQSRKLPYTFGQGTRLEIK
4 | – | 2.96e+06 FLU | VHg9/VLg4 (antibody, human IgG1, V domains shown) VH: EVQLVESGGGLVKPGGSLRLSCAASGFTFSSYAMSWVRQAPGKGLEWVSTISDGDSYSYFPDSVKDRFTISRDNAKNSLYLQMNSLRAEDTAVYYCARDRIYGSVQYYAMDYWGQGTLVTVSS VL: DVVMTQSPDSLAVSLGERATISCRASESVEFSGTSLMQWYQQKPRQPLKLLIYAASNVESGVPDRFSGSGSGTDFTLTISSLQAEDVAVYYCQQSRKLPYTFGQGTRLEIK
5 | – | 682000 FLU | VHg9/VLg12 (antibody, human IgG1, V domains shown) VH: EVQLVESGGGLVKPGGSLRLSCAASGFTFSSYAMSWVRQAPGKGLEWVSTISDGDSYSYFPDSVKDRFTISRDNAKNSLYLQMNSLRAEDTAVYYCARDRIYGSVQYYAMDYWGQGTLVTVSS VL: EIVLTQSPATLSLSPGERATLSCRASESVEFSGTSLMQWYQQKPGQAPRLLIYAASNVESGIPARFSGSGSGTDFTLTISSLEPEDFAVYYCQQSRKLPYTFGQGTKLEIK
6 | – | 1.5e+06 FLU | VHg1/VLg6 (antibody, human IgG1, V domains shown) VH: QVQLVQSGGGLVQPGGSLRLSCAASGFTFSSYAMSWVRQAPGKGLEWVSTISDGDSYSYFPDSVKDRFTISRDNSKNTLYLQMNSLRAEDTSVYYCARDRIYGSVQYYAMDYWGQGTLVTVSS VL: DVVMTQSPPSLPVTPGEPASISCRASESVEFSGTSLMQWYLQKPGQSPQVLIYAASNVESGVPDRFSGSGSGTDFTLKISRVEAEDVGVYYCQQSRKLPYTFGQGTRLEIK
7 | – | 3.05e+06 FLU | VHg9/VLg5 (antibody, human IgG1, V domains shown) VH: EVQLVESGGGLVKPGGSLRLSCAASGFTFSSYAMSWVRQAPGKGLEWVSTISDGDSYSYFPDSVKDRFTISRDNAKNSLYLQMNSLRAEDTAVYYCARDRIYGSVQYYAMDYWGQGTLVTVSS VL: EIVLTQSPGTLSLSPGERGTLSCRASESVEFSGTSLMQWYQQKPGQAPRLLIYAASNVESGIPDRFSGSGSETDFTLTISRLEPEDLAVYYCQQSRKLPYTFGQGTRLEIK
8 | – | 2.23e+06 FLU | VHg3/VLg2 (antibody, human IgG1, V domains shown) VH: EVQLVQSGGGLVKPGGSLRLSCAASGFKFSSYAMSWVRQAPGKGLEWLSTISDGDSYSYFPDSVKDRFIISRDNAKNSLYLQMNSLRVEDTGVYYCARDRIYGSVQYYAMDYWGQGTLVTVSS VL: DIQLTQSPSSLSASVGDRVTITCRASESVEFSGTSLMQWYQQKAGLAPKLLIYAASNVESGVPSRFSGSGSGTDFTLTISSLQPEDFGTYYCQQSRKLPYTFGQGTRLEIK
9 | – | 1.96e+06 FLU | VHg6/VLg6 (antibody, human IgG1, V domains shown) VH: QVQLQQSGGGLVQPGGSLRLSCAASGFTFSSYAMSWVRQAPGKGLEWVATISDGDSYSYFPDSVKDRFTISRDNARNSLYLQMNSLRAEDTAVYYCARDRIYGSVQYYAMDYWGRGTLVTVSS VL: DVVMTQSPPSLPVTPGEPASISCRASESVEFSGTSLMQWYLQKPGQSPQVLIYAASNVESGVPDRFSGSGSGTDFTLKISRVEAEDVGVYYCQQSRKLPYTFGQGTRLEIK
10 | – | 2.05e+06 FLU | VHg3/VLg6 (antibody, human IgG1, V domains shown) VH: EVQLVQSGGGLVKPGGSLRLSCAASGFKFSSYAMSWVRQAPGKGLEWLSTISDGDSYSYFPDSVKDRFIISRDNAKNSLYLQMNSLRVEDTGVYYCARDRIYGSVQYYAMDYWGQGTLVTVSS VL: DVVMTQSPPSLPVTPGEPASISCRASESVEFSGTSLMQWYLQKPGQSPQVLIYAASNVESGVPDRFSGSGSGTDFTLKISRVEAEDVGVYYCQQSRKLPYTFGQGTRLEIK
11 | – | 2.86e+06 FLU | VHg3/mVL (antibody, human IgG1, V domains shown) VH: EVQLVQSGGGLVKPGGSLRLSCAASGFKFSSYAMSWVRQAPGKGLEWLSTISDGDSYSYFPDSVKDRFIISRDNAKNSLYLQMNSLRVEDTGVYYCARDRIYGSVQYYAMDYWGQGTLVTVSS VL: DIVLTQSPASLAVSLGQRATISCRASESVEFSGTSLMQWYQQRPGLPPKLLIYAASNVESGVPARFSGSGSGTDFSLNIHPVEEDDIAMYFCQQSRKLPYTFGGGTKLEIN
12 | – | 797000 FLU | VHg1/VLg1 (antibody, human IgG1, V domains shown) VH: QVQLVQSGGGLVQPGGSLRLSCAASGFTFSSYAMSWVRQAPGKGLEWVSTISDGDSYSYFPDSVKDRFTISRDNSKNTLYLQMNSLRAEDTSVYYCARDRIYGSVQYYAMDYWGQGTLVTVSS VL: DVVMTQSPDSLAVSLGERATINCRASESVEFSGTSLMQWYQQKPGQPPKLLIYAASNVESGVPDRFSGSGSGTDFTLTISSLQAEDVVVYYCQQSRKLPYTFGGGTKVEIK
13 | – | 402000 FLU | VHg2/VLg1 (antibody, human IgG1, V domains shown) VH: QMQLVQSGGGLVKPGGSLRLSCAASGFTFSSYAMSWIRQAPGKGLEWVSTISDGDSYSYFPDSVKDRFTISRDNAKNSLYLQMNSLRAEDTAVYYCTRDRIYGSVQYYAMDYWGRGTLVTVSS VL: DVVMTQSPDSLAVSLGERATINCRASESVEFSGTSLMQWYQQKPGQPPKLLIYAASNVESGVPDRFSGSGSGTDFTLTISSLQAEDVVVYYCQQSRKLPYTFGGGTKVEIK
14 | – | 2.85e+06 FLU | VHg6/VLg5 (antibody, human IgG1, V domains shown) VH: QVQLQQSGGGLVQPGGSLRLSCAASGFTFSSYAMSWVRQAPGKGLEWVATISDGDSYSYFPDSVKDRFTISRDNARNSLYLQMNSLRAEDTAVYYCARDRIYGSVQYYAMDYWGRGTLVTVSS VL: EIVLTQSPGTLSLSPGERGTLSCRASESVEFSGTSLMQWYQQKPGQAPRLLIYAASNVESGIPDRFSGSGSETDFTLTISRLEPEDLAVYYCQQSRKLPYTFGQGTRLEIK
15 | – | 2.81e+06 FLU | VHg1/VLg13 (antibody, human IgG1, V domains shown) VH: QVQLVQSGGGLVQPGGSLRLSCAASGFTFSSYAMSWVRQAPGKGLEWVSTISDGDSYSYFPDSVKDRFTISRDNSKNTLYLQMNSLRAEDTSVYYCARDRIYGSVQYYAMDYWGQGTLVTVSS VL: DIQMTQSPSSLSASVGDRVTITCRASESVEFSGTSLMQWYQQKPGKAPKLLIYAASNVESGVPSRFSGSGSGTDFTFTISSLQPEDIATYYCQQSRKLPYTFGQGTKLEIK
16 | – | 3.2e+06 FLU | VHg10/mVL (antibody, human IgG1, V domains shown) VH: EVQLVESGGGLVQPGGSLRLSCAASGFTFSSYAMSWVRQAPGKGLEWVSTISDGDSYSYFPDSVKDRFTISRDNSKNTLYLQMNSLRAEDTAVYYCARDRIYGSVQYYAMDYWGQGTLVTVSS VL: DIVLTQSPASLAVSLGQRATISCRASESVEFSGTSLMQWYQQRPGLPPKLLIYAASNVESGVPARFSGSGSGTDFSLNIHPVEEDDIAMYFCQQSRKLPYTFGGGTKLEIN
17 | – | 2.88e+06 FLU | VHg9/VLg2 (antibody, human IgG1, V domains shown) VH: EVQLVESGGGLVKPGGSLRLSCAASGFTFSSYAMSWVRQAPGKGLEWVSTISDGDSYSYFPDSVKDRFTISRDNAKNSLYLQMNSLRAEDTAVYYCARDRIYGSVQYYAMDYWGQGTLVTVSS VL: DIQLTQSPSSLSASVGDRVTITCRASESVEFSGTSLMQWYQQKAGLAPKLLIYAASNVESGVPSRFSGSGSGTDFTLTISSLQPEDFGTYYCQQSRKLPYTFGQGTRLEIK
18 | – | 1.62e+06 FLU | VHg2/VLg6 (antibody, human IgG1, V domains shown) VH: QMQLVQSGGGLVKPGGSLRLSCAASGFTFSSYAMSWIRQAPGKGLEWVSTISDGDSYSYFPDSVKDRFTISRDNAKNSLYLQMNSLRAEDTAVYYCTRDRIYGSVQYYAMDYWGRGTLVTVSS VL: DVVMTQSPPSLPVTPGEPASISCRASESVEFSGTSLMQWYLQKPGQSPQVLIYAASNVESGVPDRFSGSGSGTDFTLKISRVEAEDVGVYYCQQSRKLPYTFGQGTRLEIK
19 | – | 410000 FLU | VHg5/VLg1 (antibody, human IgG1, V domains shown) VH: QVQLQQSGGGLVQAGGSLRLSCAASGFTFTSYAMSWVRQAPGKGLEWVATISDGDSYSYFPDSVKDRFIISRDNAKNSLFLQMNSLRAEDTAVYYCARDRIYGSVQYYAMDYWGRGTLVTVSS VL: DVVMTQSPDSLAVSLGERATINCRASESVEFSGTSLMQWYQQKPGQPPKLLIYAASNVESGVPDRFSGSGSGTDFTLTISSLQAEDVVVYYCQQSRKLPYTFGGGTKVEIK
20 | – | 387000 FLU | VHg5/VLg6 (antibody, human IgG1, V domains shown) VH: QVQLQQSGGGLVQAGGSLRLSCAASGFTFTSYAMSWVRQAPGKGLEWVATISDGDSYSYFPDSVKDRFIISRDNAKNSLFLQMNSLRAEDTAVYYCARDRIYGSVQYYAMDYWGRGTLVTVSS VL: DVVMTQSPPSLPVTPGEPASISCRASESVEFSGTSLMQWYLQKPGQSPQVLIYAASNVESGVPDRFSGSGSGTDFTLKISRVEAEDVGVYYCQQSRKLPYTFGQGTRLEIK
21 | – | 1.44e+06 FLU | VHg5/VLg4 (antibody, human IgG1, V domains shown) VH: QVQLQQSGGGLVQAGGSLRLSCAASGFTFTSYAMSWVRQAPGKGLEWVATISDGDSYSYFPDSVKDRFIISRDNAKNSLFLQMNSLRAEDTAVYYCARDRIYGSVQYYAMDYWGRGTLVTVSS VL: DVVMTQSPDSLAVSLGERATISCRASESVEFSGTSLMQWYQQKPRQPLKLLIYAASNVESGVPDRFSGSGSGTDFTLTISSLQAEDVAVYYCQQSRKLPYTFGQGTRLEIK
